“Also recorded” adds a separate entry of the source.
Tests used:
[1] = molecular target: T1, GABAA receptor α5-subtype (Homo sapiens, UniProt P18507+P31644); conditions: inverse agonist selective for the α5-subtype; cited from earlier work
T1 sequence (P31644 32-462): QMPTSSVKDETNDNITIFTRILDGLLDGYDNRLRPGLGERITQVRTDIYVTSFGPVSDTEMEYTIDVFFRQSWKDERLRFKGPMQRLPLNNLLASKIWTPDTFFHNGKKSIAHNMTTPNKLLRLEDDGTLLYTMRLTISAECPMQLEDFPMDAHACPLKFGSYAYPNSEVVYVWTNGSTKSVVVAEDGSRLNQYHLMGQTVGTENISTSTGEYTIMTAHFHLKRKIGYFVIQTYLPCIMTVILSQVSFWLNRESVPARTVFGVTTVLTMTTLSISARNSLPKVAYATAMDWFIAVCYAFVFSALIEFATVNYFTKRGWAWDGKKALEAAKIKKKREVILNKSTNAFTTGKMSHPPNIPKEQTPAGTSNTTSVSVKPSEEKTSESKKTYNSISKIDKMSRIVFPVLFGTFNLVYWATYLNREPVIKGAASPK
T1 sequence (P28472 26-473 partner): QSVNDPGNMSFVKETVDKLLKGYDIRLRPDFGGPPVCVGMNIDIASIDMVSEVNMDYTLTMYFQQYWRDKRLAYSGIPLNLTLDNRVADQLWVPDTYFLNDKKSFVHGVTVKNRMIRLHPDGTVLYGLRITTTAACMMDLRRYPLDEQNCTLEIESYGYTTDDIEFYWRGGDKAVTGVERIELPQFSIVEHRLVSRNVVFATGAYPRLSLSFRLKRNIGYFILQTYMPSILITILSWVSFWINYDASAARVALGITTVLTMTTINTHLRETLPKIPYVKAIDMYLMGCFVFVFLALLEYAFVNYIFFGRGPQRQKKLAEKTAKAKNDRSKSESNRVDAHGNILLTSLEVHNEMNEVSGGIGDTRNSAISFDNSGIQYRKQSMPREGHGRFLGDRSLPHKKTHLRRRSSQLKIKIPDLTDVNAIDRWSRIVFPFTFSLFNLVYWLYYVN
T1 sequence (P18507 40-467 limits assumed): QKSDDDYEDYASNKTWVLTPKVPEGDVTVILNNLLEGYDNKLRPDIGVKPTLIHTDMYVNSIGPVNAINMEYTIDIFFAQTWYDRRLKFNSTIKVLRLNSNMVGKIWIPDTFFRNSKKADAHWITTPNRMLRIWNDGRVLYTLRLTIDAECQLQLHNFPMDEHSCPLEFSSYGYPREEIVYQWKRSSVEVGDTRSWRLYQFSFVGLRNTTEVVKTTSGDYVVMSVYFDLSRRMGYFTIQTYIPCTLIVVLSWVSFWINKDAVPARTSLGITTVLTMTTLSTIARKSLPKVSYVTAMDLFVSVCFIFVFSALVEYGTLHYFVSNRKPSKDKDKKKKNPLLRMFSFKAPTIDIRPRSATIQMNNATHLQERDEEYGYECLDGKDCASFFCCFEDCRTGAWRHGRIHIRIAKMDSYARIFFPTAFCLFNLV

α5GABAARs [2] = molecular target: T2, α5GABAARs (Mus musculus, UniProt P22723+Q8BHJ7); experiment: Tonic inhibitory current, whole cell voltage-clamp in cultured hippocampal neurons; assay type: cell-based, mice; set-up: endogenous in cells; host or cells: primary embryonic mouse hippocampal neurons, alone or co-cultured with cortical microglia; conditions: for effect on the tonic current (in words): cultured hippocampal neurons
α5GABAARs [3] = molecular target: T2, α5GABAARs; experiment: Fear conditioning after IL-1β or LPS injection; assay type: in vivo, mice; conditions: for contextual fear memory, WT mice (in words): IL-1β 1 μg kg^−1 i.p. or LPS 125 μg kg^−1 i.p. 3 h before conditioning, inverse agonist co-administered; for cued fear memory to a conditioned tone stimulus (in words): mouse, in vivo
Experimental: Pavlovian fear-conditioning tasks were used for behavioral analysis^29. LPS (125 μg kg^−1, i.p., with physiological saline as the vehicle control) or IL-1β (1 μg kg^−1, i.p., with 0.1% bovine serum albumin as the vehicle control) was injected into male 3- to 4-month-old WT and Gabra5−/− mice 3 h before conditioning. The intensity of the electric footshock was 0.5 mA. For some mice, the inverse agonist L-655,708 (0.35 or 0.5 mg kg^−1, i.p.) or vehicle control (10% DMSO, i.p.) was injected 30 min before training. The movement of the mouse was monitored. The percentage of time that each mouse spent in a freezing position was determined using FreezeView software (Version 2.26, Actimetrics Inc, Wilmette, Ill., USA).
We have determined that IL-1β-induced impairment of contextual fear memory can be reversed by pharmacological inhibition of α5GABAA receptors by the inverse agonist MRK-016. Fear conditioning was performed 3 h after injection of IL-1β (1 μg kg^−1, i.p.) in both wild-type (WT) and α5GABAA receptor knock out (Gabra5−/−) mice. Mice were trained to associate a context (contextual fear) and a tone (cued fear) with an aversive electric footshock. 24 h after conditioning each mouse was placed in the training context, and contextual fear memory was measured as the percentage of time spent freezing. Cued fear memory was measured 48 h after training as the percentage of time spent freezing to the conditioned auditory tone in a novel context.

α5GABAARs [4] = experiment: Tonic current in ex vivo hippocampal slices (CA1 pyramidal neurons); assay type: cell-based; conditions: slices from WT mice treated with IL-1β 1 μg kg^−1 i.p. 2-3 h before sacrifice, n=6
Experimental: Recordings were performed as previously described^29. Hippocampal slices ([…]) were prepared from male 3- to 4-week-old WT mice with a mixed genetic background (C57BL/6/SvEv129). Mice were injected with vehicle (0.1% bovine serum albumin, i.p.) or IL-1β ([…], i.p.) 2-3 hours before sacrifice. To record the tonic GABAergic current, […] GABA was added, and the GABAAR competitive antagonist Bic ([…]) was applied to reveal the tonic current. All cells were recorded at a holding potential of −60 mV.

postsynaptic GABAARs = experiment: Whole-cell currents evoked by exogenous GABA (10 μM) in cultured hippocampal neurons; assay type: cell-based, mice; conditions: IL-1β 20 ng ml−1; GABA 10 μM; n=9
α5 subunit of GABAARs = experiment: Hippocampal slice cell surface biotinylation assay; assay type: cell-based, C57BL/6 mice
Experimental: (§1) Cell surface biotinylation assay for α5 and α1 subunits of GABAARs was performed as previously described^25. Hippocampal slices ([…]) from male 10- to 14-week-old C57BL/6 mice were treated with IL-1β (20 ng ml^1, 40 min). Anti-GABAAR α1 and α5 antibodies were obtained from PhosphoSolutions (Aurora, Calif., USA).

α1 subunit of GABAARs = experiment: Hippocampal slice cell surface biotinylation assay; assay type: cell-based, C57BL/6 mice; conditions: IL-1β 20 ng ml−1, 40 min, n=5
Experimental: as §1

synaptic GABAARs = experiment: Miniature inhibitory postsynaptic currents (mIPSCs) in cultured hippocampal neurons; assay type: cell-based, mice; conditions: IL-1β 20 ng ml^−1

T2 sequence (Q8BHJ7 32-463 limits assumed): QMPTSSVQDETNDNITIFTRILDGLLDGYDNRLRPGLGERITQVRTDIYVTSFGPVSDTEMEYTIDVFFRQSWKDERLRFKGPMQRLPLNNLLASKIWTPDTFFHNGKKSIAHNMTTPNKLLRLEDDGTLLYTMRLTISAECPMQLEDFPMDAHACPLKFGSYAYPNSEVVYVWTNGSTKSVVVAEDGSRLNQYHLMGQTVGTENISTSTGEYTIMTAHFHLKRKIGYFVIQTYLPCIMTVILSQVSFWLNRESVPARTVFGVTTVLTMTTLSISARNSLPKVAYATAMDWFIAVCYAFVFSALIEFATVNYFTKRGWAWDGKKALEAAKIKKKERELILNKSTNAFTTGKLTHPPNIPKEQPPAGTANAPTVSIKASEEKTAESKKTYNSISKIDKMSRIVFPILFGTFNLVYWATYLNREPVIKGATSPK
T2 sequence (P63080 26-473 partner): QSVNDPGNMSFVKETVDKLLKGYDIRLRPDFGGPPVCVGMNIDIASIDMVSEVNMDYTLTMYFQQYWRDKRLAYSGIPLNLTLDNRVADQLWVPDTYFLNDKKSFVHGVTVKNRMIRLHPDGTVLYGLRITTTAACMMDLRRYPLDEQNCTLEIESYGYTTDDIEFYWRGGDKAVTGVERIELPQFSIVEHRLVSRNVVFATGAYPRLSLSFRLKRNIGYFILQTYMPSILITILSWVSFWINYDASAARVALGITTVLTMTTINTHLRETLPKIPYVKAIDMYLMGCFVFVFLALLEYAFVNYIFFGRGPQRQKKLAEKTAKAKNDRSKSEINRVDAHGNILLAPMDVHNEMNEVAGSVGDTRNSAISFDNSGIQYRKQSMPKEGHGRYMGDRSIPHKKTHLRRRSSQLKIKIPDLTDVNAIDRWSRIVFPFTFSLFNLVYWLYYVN
T2 sequence (P22723 39-474): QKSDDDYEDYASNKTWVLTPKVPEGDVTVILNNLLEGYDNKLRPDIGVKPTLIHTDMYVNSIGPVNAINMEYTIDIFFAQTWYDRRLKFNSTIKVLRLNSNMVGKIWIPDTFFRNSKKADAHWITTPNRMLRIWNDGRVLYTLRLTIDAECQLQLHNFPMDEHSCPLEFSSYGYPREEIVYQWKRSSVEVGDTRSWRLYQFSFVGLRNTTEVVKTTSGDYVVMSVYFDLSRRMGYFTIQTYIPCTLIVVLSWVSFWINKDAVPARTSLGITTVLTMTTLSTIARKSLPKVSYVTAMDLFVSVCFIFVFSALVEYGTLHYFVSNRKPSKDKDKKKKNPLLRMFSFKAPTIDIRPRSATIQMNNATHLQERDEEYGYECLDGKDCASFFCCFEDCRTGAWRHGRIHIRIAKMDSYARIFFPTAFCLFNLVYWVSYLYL

Cc1cc(-c2nncc3c(C(C)(C)C)c(OCc4ncnn4C)nn23)no1 [MRK-016, 3-(1,1-Dimethylethyl)-7-(5-methyl-3-isoxazolyl)-2-[(1-methyl-1H-1,2,4-triazol-5-yl)methoxy]-pyrazolo[1,5-d][1,2,4]triazine]
EC50 [1]: 3 nM | effect on the tonic current (in words) (α5GABAARs [2]): inhibited the tonic current; also recorded: blocks the tonic inhibitory current in hippocampal neurons from mice | contextual fear memory, WT mice (in words) (α5GABAARs [3]): restored freezing scores for contextual fear memory to control values | contextual fear memory, WT mice (in words) (α5GABAARs [3]; listed as MRK-016A): reverses memory deficits associated with inflammation | cued fear memory to a conditioned tone stimulus (in words) (α5GABAARs [3]): did not affect freezing to a conditioned tone stimulus

B1: IL-1β: pro-inflammatory cytokine interleukin-1β; recombinant mouse IL-1β; IL-13 and IL-β in b369 are misprints (protein, UniProt P10749 118-269, looked up)
Interleukin-1 beta: VPIRQLHYRLRDEQQKSLVLSDPYELKALHLNGQNINQQVIFSMSFVQGEPSNDKIPVALGLKGKNLYLSCVMKDGTPTLQLESVDPKQYPKKKMEKRFVFNKIEVKSKVEFESAEFPNWYISTSQAEHKPVFLGNNSGQDIIDFTMESVSS
tonic current (α5GABAARs [4]): 44.9±9.4 pA | inhibition of the GABA-evoked peak current (postsynaptic GABAARs): 27.8%±2.2% | inhibition of the GABA-evoked steady-state current (postsynaptic GABAARs): 12.7%±1.5% | α5 subunits expressed on the surface of the neurons (α5 subunit of GABAARs; IL-1β 20 ng ml−1, 40 min, n=3): 183.3%±29.6% | surface expression of α5GABAARs (in words) (α5 subunit of GABAARs; IL-1β 20 ng/ml for 20 or 40 min, preliminary study): dramatically increases the surface expression of α5GABAARs | surface expression of α1 subunits (in words) (α1 subunit of GABAARs): caused no increase in the surface expression of α1 subunits | increase of the amplitude of the tonic current (α5GABAARs [2]; 20 ng ml^−1 for 20 min): 45% | tonic current density (α5GABAARs [2]; IL-1β 20 ng ml^−1 20 min with or without SB203,580 20 μM 30 min): 1.4±0.1 pA pF^−1 | variance of the noise (root mean square deviation) (α5GABAARs [2]; IL-1β 20 ng ml^−1 for 20 min, n=22): 9.8±0.7 pA | tonic current density (α5GABAARs [2]; IL-1β 20 ng ml^−1 for 20 min, revealed by bicuculline 100 μM, n=22): 1.6±0.1 pA pF^−1 | tonic current density (α5GABAARs [2]; IL-1β 60 ng ml^−1 for 3 h, n=6): 2.0±0.3 pA pF^−1 | tonic current density (α5GABAARs [2]; IL-1β for 12-15 h, n=21): 1.3±0.6 pA pF^−1 | effect on the tonic current (in words) (α5GABAARs [2]): increased the amplitude of the tonic current; also recorded: increased the tonic current recorded in wild-type (WT) neurons but not in neurons isolated from Gabra5−/− mice | contextual fear memory, Gabra5−/− mice (in words) (α5GABAARs [3]; IL-1β 1 μg kg^−1 i.p. or LPS 125 μg kg^−1 i.p.): exhibited no such deficits | contextual fear memory, WT mice (in words) (α5GABAARs [3]): showed impairment of contextual fear memory | cued fear memory to a conditioned tone stimulus (in words) (α5GABAARs [3]): cued fear memory to a conditioned tone stimulus was not affected by IL-1β | reduction of the amplitude of the mIPSCs (synaptic GABAARs): 17.3%±3.1% | reduction of the charge transfer of the mIPSCs (synaptic GABAARs): 22.2%±7.0% | mIPSC Amplitude (synaptic GABAARs; IL-1ra 250 ng ml^−1, mean ± S.E.M., n = 6): 24.7 ± 2.1 pA | mIPSC Area (synaptic GABAARs; IL-1ra 250 ng ml^−1, n = 6): 279.0 pA · ms | mIPSC Decay time (synaptic GABAARs; IL-1ra 250 ng ml^−1, n = 6): 14.8 ± 1.1 ms | mIPSC Frequency (synaptic GABAARs; IL-1ra 250 ng ml^−1, n = 6): 3.7 ± 2.3 Hz | mIPSC Rise time (synaptic GABAARs; IL-1ra 250 ng ml^−1, n = 6): 2.4 ± 0.1 ms

— US9517265B2, “Methods for the prevention and/or treatment of memory impairment” (The Governing Council of the University of Toronto, priority 2010, dated 2016)
